Results published in US20060121047A1, “Use of hmgb polypetides for increasing immune responses” (priority 2002, published 2006).

Key:
RAW 264.7 cells [1] = experiment: IL-6 release from RAW 264.7 cells (ELISA); type: cell-based, murine; details: B box 0-10 μg/ml, 8 hours (FIG. 2C)
Description: (§1) Murine macrophage-like RAW 264.7 cells (American Type Culture Collection, Rockville, Md.) were cultured in RPMI 1640 medium (Life Technologies, Grand Island N.Y.) supplemented with 10% fetal bovine serum (Gemini, Catabasas, Calif.), penicillin and streptomycin (Life Technologies) and were used at 90% confluence in serum-free Opti-MEM I medium (Life Technologies, Grand Island, N.Y.). […] Polymyxin B was not used in experiments of synthetic peptide studies.
(§2) To further examine the effect of HMGB1 B box on cytokine production, varying amounts of HMGB1 B box were evaluated for the effects on TNF, IL-1B, and IL-6 production in murine macrophage-like RAW 264.7 cells. Conditioned media were harvested and measured for TNF, IL-1β and IL-6 levels. TNF levels were measured as described herein, and IL-1β and IL-6 levels were measured using the mouse IL-1β and IL-6 enzyme-linked immunosorbent assay (ELISA) kits (R&D System Inc., Minneapolis, 1) and N>5 for all experiments.

C3H/HeJ mice = experiment: Lethality and histology in C3H/HeJ mice; type: in vivo
Text: Male 6-8 week old Balb/c and C3H/HeJ mice were purchased from Harlen Sprague-Dawley (Indianapolis, Ind.) and were allowed to acclimate for 7 days before use in experiments. All animals were housed in the North Shore University Hospital Animal Facility under standard temperature, and a light and dark cycle.

[2] = tested on: Murine macrophage-like RAW 264.7 cells; experiment: TNF release from RAW 264.7 cells (L929 cytotoxicity bioassay); type: cell-based; details: for TNF release, dose dependence: B box 0-10 μg/ml, 8 hours (FIG. 2A)
Description: as §1
TNF release was measured by a standard murine fibroblast L929 (ATCC, American Type Culture Collection, Rockville, Md.) cytotoxicity bioassay (Bianchi et al., Journal of Experimental Medicine 183:927-936, 1996) with the minimum detectable concentration of 30 pg/ml. Recombinant mouse TNF was obtained from R&D system Inc., (Minneapolis, MN). Murine fibroblast L929 cells (ATCC) were cultured in DMEM (Life Technologies, Grand Island, N.Y.) supplemented with 10% fetal bovine serum (Gemini, Catabasas, Calif.), penicillin (50 units/ml) and streptomycin (50 μg/ml) (Life Technologies) in a humidified incubator with 5% CO2.
The effect of the mutants on TNF release from Murine macrophage-like RAW 264.7 cells (ATCC) was carried out as follows. RAW 264.7 cells were cultured in RPMI 1640 medium (Life Technologies, Grand Island N.Y.) supplemented with 10% fetal bovine serum (Gemini, Catabasas, Calif.), penicillin and streptomycin (Life Technologies). Polymyxin (Sigma, St. Louis, Mo.) was added at 100 units/ml to suppress the activity of any contaminating LPS. Cells were incubated with 1 μg/ml of full length (wild-type) HMGB1 and each HMGB1 mutant protein in Opti-MEM I medium for 8 hours, and conditioned supernatants (containing TNF which had been released from the cells) were collected and TNF released from the cells was measured by a standard murine fibroblast L929 (ATCC) cytotoxicity bioassay (Bianchi et al., supra) with the minimum detectable concentration of 30 pg/ml. Recombinant mouse TNF was obtained from R & D Systems Inc., (Minneapolis, Minn.) and used as control in these experiments. Data in FIG. 1 are all presented as mean+SEM unless otherwise indicated. (=6−10).
as §2
The kinetics of B box-induced TNF release was also examined. TNF release and TNF mRNA expression was measured in RAW 264.7 cells induced by B box polypeptide or GST tag polypeptide only used as a control (vector) (10 μg/ml) for 0 to 48 hours. Supernatants were analyzed for TNF protein levels by an L929 cytotoxicity assay (N=3-5) as described herein. For mRNA measurement, cells were plated in 100 mm plate and treated in Opti-MEM I medium containing B box polypeptide or the vector alone for 0, 4, 8, or 24 hours, as indicated in FIG. 2D. The vector only sample was assayed at the 4 hour time point. Cells were scraped off the plate and total RNA was isolated by RNAzol B method in accordance with the manufacturer's instructions (Tel-Test “B”, Inc., Friendswood, Tex.). TNF (287 bp) was measured by RNase protection assay (Ambion, Austin, Tex.). Equal loading and the integrity of RNA was verified by ethidium bromide staining of the RNA sample on agarose-formaldehyde gel. […] TNF mRNA expression was maximal at 4 hours and decreased at 8 and 24 hours. […] A similar study was carried out measuring TNF protein released from RAW 264.7 cells 0, 4, 8, 24, 32 or 48 hours after administration of B box or vector only (GST tag), using the L929 cytotoxicity assay described herein. […] Data are representative of three separate experiments. […]

RAW 264.7 cells [3] = experiment: IL-1β release from RAW 264.7 cells (ELISA); type: cell-based, murine; details: B box 0-10 μg/ml, 8 hours (FIG. 2B)
Description: as §1, §2

[4] = tested on: D-galactosamine-sensitized Balb/c mice; experiment: Histology of organs of D-galactosamine-sensitized Balb/c mice; type: in vivo; details: 1 mg/mouse i.p. plus D-gal, 7 hours
Description: To further assess the lethality of the HMGB1 B box protein in vivo the HMGB1 B box was again administered to D-galactosamine-sensitized Balb/c mice. Mice (3 per group) received D-gal (20 mg/mouse) plus B box or vector (1 mg/mouse) intraperitoneally for 7 hours and were then sacrificed by decapitation. Blood was collected, and organs (liver, heart, kidney and lung) were harvested and fixed in 10% formaldehyde. Tissue sections were prepared with hematoxylin and eosin staining for histological evaluation (Criterion Inc., Vancouver, Canada). […] In FIG. 4J, hepatocyte dropouts are seen surrounded by accumulated polymorphonuclear leukocytes. The arrows in FIG. 4J point to the sites of polymorphonuclear accumulation (dotted) or apoptotic hepatocytes (solid).

B1: B box: Recombinant GST-system human HMGB1 mutant containing only the B box, 74 amino acids, SEQ ID NO: 20 (protein, listed as Homo sapiens)
chain: FKDPNAPKRLPSAFFLFCSEYRPKIKGEHPGLSIGDVAKKLGEMWNNTAADDKQPYEKKAAKLKEKYEKDIAAY
modifications: GST system
IL-6 release, dose dependence (RAW 264.7 cells [1]): increased with increased amounts of B box | IL-6 release, dose dependence (RAW 264.7 cells [1]; listed as HMGB1 B box): dose-dependently stimulated release | histology of heart (C3H/HeJ mice; 8 hours after administration): evidence of ischemia with loss of cross striation | histology of liver (C3H/HeJ mice; 8 hours after administration): mild acute inflammatory responses | histology of lung and kidney (C3H/HeJ mice; 8 hours after administration): no abnormal morphologic changes | lethality (C3H/HeJ mice; C3H/HeJ mice (do not respond to endotoxin)): lethal | TNF release ([2]; 1 μg/ml protein, 8 hours, RAW 264.7 cells (FIG. 1)): potent activator of monocyte TNF release | time of maximum TNF protein release ([2]; 10 μg/ml): ≤ 8 h | TNF protein expression/release versus medium only ([2]; 10 μg/ml, 0 to 48 hours): stimulated TNF protein expression | TNF release, dose dependence [2]: increased with increased amounts of B box | TNF release, dose dependence ([2]; listed as HMGB1 B box): dose-dependently stimulated release | IL-1β release, dose dependence (RAW 264.7 cells [3]): addition of 1 μg/ml or 10 μg/ml of B box resulted in increased release | IL-1β release, dose dependence (RAW 264.7 cells [3]; listed as HMGB1 B box): dose-dependently stimulated release | histology of heart [4]: some ischemic changes and loss of cross striation in myocardial fibers | histology of kidneys and lungs [4]: no abnormality | histology of liver [4]: active hepatitis
